Test results reported in the supplement of paper PMC7125110.
± gives the standard error. This sample holds only a part of the variants without activity.

B1: glmS ribozyme (parent)
chain: AUAAAAGCGCCAGAACUACAGAAAUGUAGUUGACGAGGAGGAGGUUUAUCGAAUUUUCGGCGGAUGCCUCCAAA

Experiments:
Settings in all cases: with glucosamine-6-phosphate
[1] = variants of: B1; test: self-cleavage kobs at 160 uM GlcN6P; higher = faster cleavage; RNA array
Outline: (§1)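 kcat and KM were obtained from weighted Michaelis–Menten fits across concentrations of kobs values. Those came from one- or two-exponential decay fits to per-tile medians normalised to baseline and to non-cleaving reference variants. The variants were barcoded ribozymes transcribed in situ by E. coli RNA polymerase on sequenced MiSeq chips and tracked through a hybridised Cy3 probe at 37 °C, with 40 μM to 10 mM glucosamine-6-phosphate in HEPES/KCl/Mg(OAc)2 buffer flowed in.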

[2] = variants of: B1; test: self-cleavage kobs at 640 uM GlcN6P; higher = faster cleavage; RNA array
Outline: as §1

[3] = variants of: B1; test: self-cleavage kobs at 2500 uM GlcN6P; higher = faster cleavage; RNA array
Outline: as §1

[4] = variants of: B1; test: self-cleavage kobs at 10000 uM GlcN6P; higher = faster cleavage; RNA array
Outline: as §1

Variant	self-cleavage kobs at 160 uM GlcN6P [1]	self-cleavage kobs at 640 uM GlcN6P [2]	self-cleavage kobs at 2500 uM GlcN6P [3]	self-cleavage kobs at 10000 uM GlcN6P [4]
G35C C71A	< 1e-05 s⁻¹	< 1e-05 s⁻¹	< 1e-05 s⁻¹	
C8G G38A C58G C67G	0.000186 ± 5e-05 s⁻¹	0.000538 ± 0.00013 s⁻¹	0.000435 ± 0.00014 s⁻¹	
G9U U45C	< 1e-05 s⁻¹	< 1e-05 s⁻¹	< 1e-05 s⁻¹	< 1e-05 s⁻¹
C8G C16U C34U U65G	< 1e-05 s⁻¹			
C8U U47C G62U	< 1e-05 s⁻¹	< 1e-05 s⁻¹		
A39G U65C	5.26e-05 ± 2.5e-05 s⁻¹	0.000513 ± 0.00015 s⁻¹	0.00163 ± 0.0005 s⁻¹	
G7A U31C	< 1e-05 s⁻¹	< 1e-05 s⁻¹		
U31A A33G A48G	< 1e-05 s⁻¹			
U54A G66A	0.00093 ± 0.00023 s⁻¹	0.00513 ± 0.00085 s⁻¹	0.00986 ± 0.0017 s⁻¹	
G38U U56C U65A	< 1e-05 s⁻¹		< 1e-05 s⁻¹	< 1e-05 s⁻¹
G9U A39G	< 1e-05 s⁻¹		< 1e-05 s⁻¹	
G37A G62C	< 1e-05 s⁻¹	< 1e-05 s⁻¹	< 1e-05 s⁻¹	< 1e-05 s⁻¹
C8G G32U C58U	< 1e-05 s⁻¹	< 1e-05 s⁻¹		
G32C A36U C50A C70G	0.0002 ± 3.9e-05 s⁻¹	0.000332 ± 8.2e-05 s⁻¹	0.000299 ± 0.0001 s⁻¹	
G9C A15U G43U	< 1e-05 s⁻¹	< 1e-05 s⁻¹	< 1e-05 s⁻¹	
A6C C8G G35C C58U C67G	< 1e-05 s⁻¹		< 1e-05 s⁻¹	
C16G G51U U56C C70U	< 1e-05 s⁻¹	< 1e-05 s⁻¹		
G29A C50G	0.000108 ± 3.1e-05 s⁻¹	3.64e-05 ± 1.5e-05 s⁻¹	0.00038 ± 0.00019 s⁻¹	
G59C G62A	< 1e-05 s⁻¹	< 1e-05 s⁻¹	< 1e-05 s⁻¹	
U45C U47C G62U C68U	< 1e-05 s⁻¹			
A12G A15U A53C C67A	< 1e-05 s⁻¹			
A15U G38C C71A	< 1e-05 s⁻¹		< 1e-05 s⁻¹	
A12U G41U U45A	0.00011 ± 2.8e-05 s⁻¹	0.000308 ± 5.9e-05 s⁻¹	0.000989 ± 0.00025 s⁻¹	
C50U G51C	< 1e-05 s⁻¹	< 1e-05 s⁻¹	< 1e-05 s⁻¹	
G29A A39C C61G	< 1e-05 s⁻¹	< 1e-05 s⁻¹		< 1e-05 s⁻¹

Variant	self-cleavage kobs at 160 uM GlcN6P [1]	self-cleavage kobs at 640 uM GlcN6P [2]	self-cleavage kobs at 2500 uM GlcN6P [3]	self-cleavage kobs at 10000 uM GlcN6P [4]
C8A A33U A64G C67U C71G	< 1e-05 s⁻¹			
A12G A33G	< 1e-05 s⁻¹	< 1e-05 s⁻¹	< 1e-05 s⁻¹	< 1e-05 s⁻¹
U30C U31G C50G C70G	0.000158 ± 4.4e-05 s⁻¹	0.000289 ± 0.0001 s⁻¹	0.00026 ± 5.8e-05 s⁻¹	
C8G A33C A48C U69G	< 1e-05 s⁻¹		< 1e-05 s⁻¹	
C58A U69A	4.65e-05 ± 2.2e-05 s⁻¹	9.55e-05 ± 2.9e-05 s⁻¹	0.000101 ± 3.1e-05 s⁻¹	
U45C C61A	< 1e-05 s⁻¹		< 1e-05 s⁻¹	< 1e-05 s⁻¹
A36C A42G	< 1e-05 s⁻¹		< 1e-05 s⁻¹	< 1e-05 s⁻¹
C16U G43U G59U	< 1e-05 s⁻¹	< 1e-05 s⁻¹		
G9C U49C	< 1e-05 s⁻¹	< 1e-05 s⁻¹	< 1e-05 s⁻¹	< 1e-05 s⁻¹
A42U U45C A52G G59U	< 1e-05 s⁻¹			
A53G C58A C68G	0.000121 ± 4.6e-05 s⁻¹		0.000107 ± 2.5e-05 s⁻¹	
A12U U69G C70A	7.03e-05 ± 2.1e-05 s⁻¹	8.9e-05 ± 2.3e-05 s⁻¹	3.11e-05 ± 1.5e-05 s⁻¹	
G38C A64G	< 1e-05 s⁻¹	< 1e-05 s⁻¹		
U49C U57C G60A G63A	< 1e-05 s⁻¹	< 1e-05 s⁻¹	< 1e-05 s⁻¹	
C10A C11G A12C G13U	< 1e-05 s⁻¹		< 1e-05 s⁻¹	
A53G U55A G66U	0.000163 ± 4.6e-05 s⁻¹	0.000436 ± 9.4e-05 s⁻¹	0.000351 ± 0.00011 s⁻¹	
G9C G37A	< 1e-05 s⁻¹	< 1e-05 s⁻¹	< 1e-05 s⁻¹	
A42G A48G U54A	< 1e-05 s⁻¹			
A42C U45G	< 1e-05 s⁻¹	< 1e-05 s⁻¹		
U46C A53G U54C	0.000138 ± 2.9e-05 s⁻¹	0.000673 ± 0.00011 s⁻¹	0.00116 ± 0.00021 s⁻¹	
A6G G32U G40A C61G	< 1e-05 s⁻¹	< 1e-05 s⁻¹	< 1e-05 s⁻¹	
C11G A14G U31C A42G U56G A64U U65A	< 1e-05 s⁻¹	< 1e-05 s⁻¹		
C8U G35C C50U G51U C61G	< 1e-05 s⁻¹		< 1e-05 s⁻¹	
A12G G41U G51C C71A	< 1e-05 s⁻¹	< 1e-05 s⁻¹	< 1e-05 s⁻¹	
A6G C16G G38A	< 1e-05 s⁻¹	< 1e-05 s⁻¹		
